Assay results as given in IntAct's records for PubMed 11842245.

B1: Protein Rep68 (Adeno-associated virus 2 (isolate Srivastava/1982)), P03132 (parent)
chain: MPGFYEIVIKVPSDLDGHLPGISDSFVNWVAEKEWELPPDSDMDLNLIEQAPLTVAEKLQRDFLTEWRRVSKAPEALFFVQFEKGESYFHMHVLVETTGVKSMVLGRFLSQIREKLIQRIYRGIEPTLPNWFAVTKTRNGAGGGNKVVDECYIPNYLLPKTQPELQWAWTNMEQYLSACLNLTERKRLVAQHLTHVSQTQEQNKENQNPNSDAPVIRSKTSARYMELVGWLVDKGITSEKQWIQEDQASYISFNAASNSRSQIKAALDNAGKIMSLTKTAPDYLVGQQPVEDISSNRIYKILELNGYDPQYAASVFLGWATKKFGKRNTIWLFGPATTGKTNIAEAIAHTVPFYGCVNWTNENFPFNDCVDKMVIWWEEGKMTAKVVESAKAILGGSKVRVDQKCKSSAQIDPTPVIVTSNTNMCAVIDGNSTTFEHQQPLQDRMFKFELTRRLDHDFGKVTKQEVKDFFRWAKDHVVEVEHEFYVKKGGAKKRPAPSDADISEPKRVRESVAQPSTSDAEASINYADRLARGHSL
partner: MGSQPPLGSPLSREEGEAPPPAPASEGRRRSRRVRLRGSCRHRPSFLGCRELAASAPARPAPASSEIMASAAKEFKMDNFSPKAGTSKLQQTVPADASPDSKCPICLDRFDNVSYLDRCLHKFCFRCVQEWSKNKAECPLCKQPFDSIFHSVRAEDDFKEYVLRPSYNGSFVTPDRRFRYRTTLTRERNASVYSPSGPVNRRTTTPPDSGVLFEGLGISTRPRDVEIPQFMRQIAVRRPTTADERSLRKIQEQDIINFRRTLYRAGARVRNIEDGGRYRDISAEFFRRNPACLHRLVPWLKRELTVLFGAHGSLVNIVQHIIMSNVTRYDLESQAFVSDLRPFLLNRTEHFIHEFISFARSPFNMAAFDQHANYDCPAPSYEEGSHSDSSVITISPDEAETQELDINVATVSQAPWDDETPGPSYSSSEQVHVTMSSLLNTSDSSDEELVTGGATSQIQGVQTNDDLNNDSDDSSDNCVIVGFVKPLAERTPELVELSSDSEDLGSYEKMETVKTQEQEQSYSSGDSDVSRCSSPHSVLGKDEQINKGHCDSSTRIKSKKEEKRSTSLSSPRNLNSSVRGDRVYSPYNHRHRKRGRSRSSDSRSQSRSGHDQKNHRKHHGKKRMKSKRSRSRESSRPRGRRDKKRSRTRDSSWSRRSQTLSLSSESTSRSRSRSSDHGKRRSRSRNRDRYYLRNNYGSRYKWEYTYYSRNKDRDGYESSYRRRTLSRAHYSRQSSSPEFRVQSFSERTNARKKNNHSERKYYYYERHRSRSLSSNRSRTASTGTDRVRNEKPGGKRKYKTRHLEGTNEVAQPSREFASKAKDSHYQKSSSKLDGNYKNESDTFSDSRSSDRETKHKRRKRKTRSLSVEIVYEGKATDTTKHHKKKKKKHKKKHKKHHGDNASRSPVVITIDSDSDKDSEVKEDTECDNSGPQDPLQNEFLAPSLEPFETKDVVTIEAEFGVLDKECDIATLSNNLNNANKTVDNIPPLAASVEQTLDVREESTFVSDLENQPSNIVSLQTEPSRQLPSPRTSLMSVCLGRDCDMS

Variants of: B1
Conditions: with toprs_human TOPORS

| Variant | effect of a mutation on the interaction |
| --- | --- |
| MPGFYEIVIKVPSDLDGHLPGISDSFVNWVAEKEWELPPDSDMDLNLIEQAPLTVAEKLQRDFLTEWRRVSKAPEALFFVQFEKGESYFHMHVLVETTGVKSMVLGRFLSQIREKLIQRIYRGIEPTLPNWFAVTKTRNGAGGGNKVVDECYIPNYLLPKTQPELQWAWTNMEQYLSACLNLTERKRLVAQHLTHVSQTQEQNKENQNPNSDAPVIRSKTSARYMELVGWLVDKGITSEKQWIQEDQASYISFNAASNSRSQIKAALDNAGKIMSLTKTAPDYLVGQQPVEDISSNRIYKILELNGYDPQYAASVFLGWATKKFGKRNTIWLFGPATTGHTNIAEAIAHTVPFYGCVNWTNENFPFNDCVDKMVIWWEEGKMTAKVVESAKAILGGSKVRVDQKCKSSAQIDPTPVIVTSNTNMCAVIDGNSTTFEHQQPLQDRMFKFELTRRLDHDFGKVTKQEVKDFFRWAKDHVVEVEHEFYVKKGGAKKRPAPSDADISEPKRVRESVAQPSTSDAEASINYADRLARGHSL [K340H] | increasing interaction |
